Assay results reported in patent US20190309035A1, “PEPTIDE OR COLLECTION OF PEPTIDES DERIVED FROM AMYLOID PRECURSOR PROTEIN” (Ludwig-Maximilians-Universität München, priority 2015, published 2019).
Entries after “also recorded” stand apart in the source; their conditions may differ.

B1: Aη-β: Aη-β-peptide (residues 505-596 of P05067-4), 92 aa, expressed in CHO cells and enriched by SEC (protein, listed as Homo sapiens)
chain: MISEPRISYGNDALMPSLTETKTTVELLPVNGEFSLDDLQPWHSFGADSVPANTENEVEPVDARPAADRGLTTRPGSGLTNIKTEEISEVKM
B2: Aη-α: Aη-α-peptide (residues 505-612 of P05067-4), 108 aa, expressed in CHO cells and enriched by SEC (protein, listed as Homo sapiens)
chain: MISEPRISYGNDALMPSLTETKTTVELLPVNGEFSLDDLQPWHSFGADSVPANTENEVEPVDARPAADRGLTTRPGSGLTNIKTEEISEVKMDAEFRHDSGYEVHHQK

What was measured:
BACE1 = molecular target: T1, BACE1 (Cricetulus griseus, UniProt G3IAK4); experiment: BACE1 inhibitor treatment of CHO cells expressing human APPV717F, Western blot of supernatants; format: cell-based; details: 2 μM
T1 construct: endogenous in cells; host or cells: CHO cells overexpressing human APPV717F (CHO / 7PA2)
T1 sequence (G3IAK4 22-501): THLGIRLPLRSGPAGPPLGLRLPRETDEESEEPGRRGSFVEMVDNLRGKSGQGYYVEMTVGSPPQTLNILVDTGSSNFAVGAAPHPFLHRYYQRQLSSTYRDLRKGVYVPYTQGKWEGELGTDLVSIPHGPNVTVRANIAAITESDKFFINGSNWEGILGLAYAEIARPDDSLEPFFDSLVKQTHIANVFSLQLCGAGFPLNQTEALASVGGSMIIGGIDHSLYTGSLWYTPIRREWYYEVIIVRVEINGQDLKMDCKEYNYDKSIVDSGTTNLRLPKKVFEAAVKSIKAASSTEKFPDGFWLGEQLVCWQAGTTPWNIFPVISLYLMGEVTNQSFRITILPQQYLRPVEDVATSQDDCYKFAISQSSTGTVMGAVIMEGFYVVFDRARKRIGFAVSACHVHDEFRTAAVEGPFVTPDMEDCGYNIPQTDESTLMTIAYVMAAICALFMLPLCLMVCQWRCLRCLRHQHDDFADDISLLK
Protocol: a) Supernatants of CHO cells expressing human APPV717F without or with BACE1 inhibition (BI; 2 μM Merck IV) were compared to synthetic peptides of Aη-β and Aη-α. Increased Aη-α peptide levels were observed upon BACE1 inhibitor treatment with 2D8 and 2E9 antibodies. The fragment with the lowest molecular weight, co-migrating with the synthetic peptide Aη-β, disappeared upon BACE1 inhibition b) After overnight incubation of DIV 16 primary hippocampal neurons without or with the BACE1 inhibitor (BI; 2 μM Merck IV), supernatants were analyzed by Western blotting. […] Total levels of secreted APP (22C11) were unchanged while sAPP-α levels increased. […] Inhibitor treated mice and vehicle treated controls were sacrificed and analyzed after 5, 8 or 24 h. […]
CHO and 7PA2^44 cells were grown in DMEM/F12 (Thermo Scientific) supplemented with 10% fetal calf serum (FCS, Thermo Scientific) plus Penicillin/Streptomycin and NEAA (Non-essential amino acids, PAA) in a humid incubator with 5% CO2 at a temperature of 37° C. […] The protein concentration of lysates was determined using the Uptima BC Assay Protein Quantitation kit (Interchim).
Proteins were separated under denaturing conditions using discontinuous SDS-PAGE. […] CTFs, Aη and Aβ were detected after transfer on Nitrocellulose membranes (Protran BA85; GE Hlealthcare), while other proteins were blotted on PVDF (Immobilon-P, Merck Millipore). […]

hippocampal LTP = experiment: Long-term potentiation (LTP) recordings in acute hippocampal slices (fEPSP at the CA3-CA1 synapse); format: cell-based, mouse; details: for fEPSP baseline responses after incubation with SEC fractions: 1/15 dilution, 15 min bath application before LTP induction
Protocol: a) Aη-α and Aη-β peptides were expressed in CHO cells and collected in OPTIMEM medium. […] Higher molecular weight bands are most likely due to posttranslational modification by glycosylation. b-e) SEC fractions enriched for Aη were diluted (1:15) in ACSF for the treatment of hippocampal slices and LTP measurements. Aη-α, Aη-β and control SEC fractions (obtained from CHO cells transfected with the empty vector) were perfused over mouse hippocampal slices for 15 min after obtaining a stable baseline of a fEPSP at the CA3-CA1 synapse.
OPTIMEM was used to collect CHO cell supernatants. SEC was performed with concentrated CHO supernatants using a FPLC (ÄKTApurifier) equipped with a Superdex75 column (GE Healthcare). 1 ml samples were collected with a mobile phase flow rate set at 0.5 ml/min in standard ACSF. Acute hippocampal slices were prepared from Swiss mice (PND20-30) and kept in ACSF^42. Extracellular field excitatory post-synaptic potentials (fEPSPs) were obtained from CA1 pyramidal neurons. After 15 minutes of bath application of SEC fractions^43, LTP was induced by high frequency stimulation (2 pulses of 100 Hz for 1 second with a 20 second inter-pulse interval). LTP was recorded for 60 minutes and statistical analysis was performed on the last 15 minutes of recording compared to baseline fEPSP values.
Transverse hippocampal slices ([…]) were prepared from postnatal day 20-30 Swiss mice following standard procedures^56. Slices were cut in ice-cold oxygenated (95% O2/5% CO2) solution containing 206 mM sucrose, 2.8 mM KCl, 1.25 mM NaH2PO4, 2 mM MgSO4, 1 mM MgCl2, 1 mM CaCl2, 26 mM NaHCO3, 0.4 mM sodium ascorbate, 10 mM glucose (pH 7.4). For recovery (1 h), slices were incubated at 27° C. in oxygenated standard artificial cerebrospinal fluid (ACSF) containing: 124 mM NaCl, 2.8 mM KCl, 1.25 mM NaH2PO4, 2 mM MgSO4, 3.6 mM CaCl2, 26 mM NaHCO3, 0.4 mM sodium ascorbate, 10 mM glucose (pH 7.4)^57. Slices were inspected in a chamber on an upright microscope (Slicescope, Scientifica Ltd) with IR-DIC illumination and were perfused with the oxygenated ACSF at 27±1° C. Field excitatory post-synaptic potentials (fEPSPs) were recorded in the stratum radiatum of the CA1 region using a glass electrode (filled with 1 M NaCl/10 mM HEPES, pH 7.4) and the stimuli (30% of maximal fEPSP) were delivered to the Schaeffer Collateral pathway by a monopolar glass electrode (filled with ACSF). Electrodes were specifically placed just below the surface of the slice to maximize the exposure to circulating peptides. A minimum of 15 minutes stable baseline was first obtained in standard ACSF followed by another 15 minutes of bath application of ACSF containing SEC fractions (CHO, Aη-α or Aη-β; 1/15 dilution, interleaved recordings) using re-circulation with a peristaltic pump at 2.5-3 ml min^−1 while being continuously aerated with 95% oxygen. […] In the continuous presence of the ACSF/SEC solution, LTP was then induced using a high frequency stimulation (HSF) protocol with 2 pulses of 100 Hz for 1 sec with 20 see interval between pulses, and recorded for one hour. Control recordings (no application of SEC fractions) were obtained in an interleaved fashion where ACSF was re-circulated using an identical procedure. For LTP analysis, the first third of the fEPSP slope was calculated in baseline condition (15 minutes prior to induction of LTP and for 60 minutes post-induction). […]

[1] = SEC fractions from conditioned media of CHO cells, diluted 1:15 in ACSF, perfused 15 min before HFS, LTP 45-60 min post-HFS

Molecule	lowest molecular weight fragment co-migrating with synthetic Aη-β (BACE1)	Aη-α peptide levels in supernatant (BACE1; 2D8 and 2E9 antibodies)	effect on LTP (hippocampal LTP; 100 nM final in 25 ml re-circulating ACSF, vs interleaved ACSF recordings, 45-60 min post-LTP induction)	fEPSP baseline responses after incubation with SEC fractions (hippocampal LTP)	effect on LTP (hippocampal LTP; [1])
C[C@@H](NC(=O)c1cc(C(=O)N[C@@H](Cc2ccccc2)[C@H](O)CNC2CC2)cc(N(C)S(C)(=O)=O)c1)c1ccccc1 [Merck IV]	disappeared	Increased	–	–	–
AβS26C dimers: AβS26C dimers from JPT Peptide Technologies, Germany [reference compound]	–	–	reduced	–	–
B1	–	–	–	No alterations	had no effect; also recorded: did not significantly inhibit
B2	–	–	–	No alterations	significantly inhibited
